The text below walks through data of patent US9844546B2, “Antibody against human HIF hydroxylase” (OXFORD UNIVERSITY INNOVATION LIMITED, priority 2001, dated 2017).

Experiment [1] addresses T1, HIF-1α/pVHL interaction (Homo sapiens, UniProt P40337).
T1 construct: made in house; host or cells: TNT rabbit reticulocyte lysate (Promega), in vitro transcription/translation
The experiment in a line: Polypeptide blocking assay of HIF-1α and pVHL.HA IVTT mixture, anti-HA immunoprecipitation. Type of experiment: binding. As to the method: Further studies were performed using synthetic polypeptides as inhibitors of the HIF-1α/pVHL interaction (23). […] Results for a series of polypeptides derived from this domain are summarized in FIG. 1B and implicate a similar minimal interaction domain. […] This polypeptide comprises HIF-1α polypeptide residues 556 to 574 and its ability to block binding following exposure to a variety of direct oxidation conditions was assessed.
We synthesized a polypeptide (HIF-1α residues 556-574), containing a trans-4-hydroxy-S-proline residue at position 564 (19:Pro564Hyp), since the trans-4-hydroxylation is the commonest enzymatic proline oxidation (25). A polypeptide blocking assay was carried out using the 19:Pro564Hyp modified polypeptide and, as a control, the unmodified polypeptide without the trans-4-hydroxylation (19:WT). The 19:WT polypeptide was either incubated with cell extract before the binding assay or was untreated. The 19:Pro564Hyp polypeptide was added to a mixture of HIF-1α and pVHL-HA IVTTs at a concentration of 1, 0.25, 0.05 or 0.01 μM and the cell extract treated or untreated 19:WT polypeptide at a concentration of 0.5 μM. Interaction of HIF-1α with pVHL was then assayed by anti-HA immunoprecipitation. […] A pVHL capture assay was then carried out using biotinylated synthetic polypeptides. The same polypeptides, 19:Pro564Hyp and 19:WT were assessed for the ability to capture wild type or mutant (Pro86His) pVHL. […] In both cases capture was specific for wild type, as opposed to mutant, pVHL.
• 1. G. L. Semenza, Genes Dev 14, 1983-91. (2000). • 2. N. V. Iyer, et al., Genes Dev. 12, 149-162 (1997). • 3. E. Maltepe, J. V. Schmidt, D. Baunoch, C. A. Bradfield, M. C. Simon, Nature 386, 403-407 (1997). • 4. G. L. Wang, B.-H. Jiang, E. A. Rue, G. L. Semenza, Proc. Natl. Acad. Sci. USA 92, 5510-5514 (1995). • 5. S. Salceda, J. Caro, J. Biol. Chem. 272, 22642-22647 (1997). • 6. L. E. Huang, J. Gu, M. Schau, H. F. Bunn, Proc. Natl. Acad. Sci. USA 95, 7987-7992 (1998). • 7. M. S. Wiesener, et al., Blood 92, 2260-2268 (1998). • 8. P. H. Maxwell, et al., Nature 399, 271-275 (1999). • 9. K. Iwai, et al., Proc. Natl. Acad. Sci. USA 96, 12436-12441 (1999). • 10. J. Lisztwan, G. Imbert, C. Wirbelauer, M. Gstaiger, W. Krek, Genes Dev 13, 1822-33 (1999). • 11. M. E. Cockman, et al., J Biol Chem (2000). • 12. M. Ohh, et al., Nat Cell Biol 2, 423-7. (2000). • 13. T. Kamura, et al., Proc Natl Acad Sci USA 97, 10430-5. (2000). • 14. K. Tanimoto, Y. Makino, T. Pereira, L. Poellinger, Embo J 19, 4298-309. (2000). • 15. M. A. Goldberg, S. P. Dunning, H. F. Bunn, Science 242, 1412-1415 (1988). • 16. G. L. Wang, G. L. Semenza, Blood 82, 3610-3615 (1993). • 17. G. L. Semenza, Cell 98, 281-284 (1999). • 18. Hypoxia (<0.1% oxygen) was obtained in a workstation with O2, CO2 and temperature control (Ruskinn Technologies, Leeds, UK). For hypoxic harvest, buffers were preincubated in the chamber overnight. RCC4-VHL.HA, labelling conditions and co-immunoprecipitation assays have been described previously (11); in the current study 12.5 μM MG132 was used for proteasomal inhibition. For standard harvest, the cells were removed from the chamber after hypoxic exposure, prior to cell lysis. Co-immunoprecipitation assays on all lysates were performed at 4° C. under ambient oxygen conditions. […] When programming in hypoxia, reaction mix was preincubated in the workstation for 10 minutes before addition of the DNA template. […]

Experiment [2] deals with Hep3b and U20S cells. The experiment in a line: Gal4/HIF-1α 775-826 carboxy terminal transactivator luciferase reporter assay. Type of experiment: cell-based, human. The following applies: normoxia or 2% hypoxia overnight. Here is the method: Hep3b and U20S cells were co-transfected with a mixture of three plasmids; pUAS.tk.luc, encoding a GAL 4 responsive luciferase gene, pgal-hif775-826, a mammalian expression plasmid leading to expression of a fusion between a 147 amino acid DNA binding domain of GAL 4 and the carboxy terminal transactivator of human HIF-1 alpha, and pCMV.beta-gal, encoding a constitutively expressed beta-galactosidase gene as a transfection control.
48 hours following transfection, cells were incubated in normoxia or 2% hypoxia overnight in the presence or absence of dimethyl oxalyl glycine as indicated. Cell lysates were assayed for luciferase and beta galactosidase activity and the relative luciferase activity in each sample determined.
(A reporter such as luciferase makes a cellular process visible.)

Entries after “also recorded” stand apart in the source; their conditions may differ.

T1 sequence (P40337 whole entry): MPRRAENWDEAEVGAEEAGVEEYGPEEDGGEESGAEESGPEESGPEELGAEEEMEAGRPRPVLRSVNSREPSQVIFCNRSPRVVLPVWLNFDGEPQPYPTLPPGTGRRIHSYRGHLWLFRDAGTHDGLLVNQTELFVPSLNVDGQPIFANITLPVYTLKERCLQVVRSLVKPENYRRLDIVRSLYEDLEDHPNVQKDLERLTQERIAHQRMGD

Take “19:Pro564Hyp: polypeptide (HIF-1α residues 556-574) containing a trans-4-hydroxy-S-proline residue at position 564”: in experiment [1] (untreated polypeptide), the “blocking of HIF-1α/pVHL interaction by polypeptide not exposed to cell extract” value is given as “highly effective at inhibiting the HIF-1α/pVHL interaction; also recorded: blocked the HIF-1α/pVHL interaction without the need for exposure to cell extract”. For the molecule “19:WT: polypeptide comprising HIF-1α residues 556 to 574”, the “blocking of HIF-1α/pVHL interaction by polypeptide after exposure to cell extract” value in experiment [1] (cell extract supplemented with Fe(II)) is on record as “blocking activity”.

In the case of `COC(=O)CNC(=O)C(=O)OC` [dimethyloxalylglycine], the “relative luciferase activity (carboxy terminal transactivator)” value in experiment [2] is recorded as “enhanced activity of the carboxy terminal transactivator”.
